Test results: article PMC10121561, “Control of a hippocampal recurrent excitatory circuit by cannabinoid receptor-interacting protein Gap43” (Nature Communications, 2023)

T1: hGAP43 (purified, unlabeled human growth-associated protein of 43 kDa) (human, UniProt P17677 1-238)
T1 construct: growth-associated protein of 43 kDa (GAP43, neuromodulin), human; also called unlabeled GAP43; neuromodulin; source: purified (details in Supplementary Methods)
T1 sequence (looked up): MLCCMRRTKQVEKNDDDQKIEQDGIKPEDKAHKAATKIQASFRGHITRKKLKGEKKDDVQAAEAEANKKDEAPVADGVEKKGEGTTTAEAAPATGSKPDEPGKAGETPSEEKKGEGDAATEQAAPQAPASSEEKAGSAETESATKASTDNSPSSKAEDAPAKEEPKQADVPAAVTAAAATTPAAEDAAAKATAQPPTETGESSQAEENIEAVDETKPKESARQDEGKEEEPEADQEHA


Key:
[1] = molecular target: CB1R (type-1 cannabinoid receptor) (UniProt P21554); assay: BRET saturation, CB1R-RLuc and GFP-GAP43; settings: reference: GFP-GAP43 wild type; sites S41
[2] = molecular target: T1, hGAP43 (purified, unlabeled human …); assay: fluorescence polarisation; fixed concentration of 5-IAF-labeled hCB1R-CTD, increasing concentrations of unlabeled hGAP43; 3 independent experiments; settings: both partners purified
RLuc-tagged CB1R = molecular target: T2, RLuc-tagged CB1R (UniProt P21554 1-472); assay: FRET or BRET; BRET saturation in live HEK293T cells expressing CB1R-RLuc and increasing amounts of GFP-GAP43 forms; 3 independent experiments; settings: partners not purified
T2 construct: type-1 cannabinoid receptor (CB1R); also called CB1R-RLuc; source: HEK293T, transfected, in live cells

BRET50 (RLuc/GFP ratio that gives half-maximal BRET effect) (RLuc-tagged CB1R) | Molecule | also measured
– | GAP43 (growth-associated protein of 43 kDa; neuromodulin) (from UniProt P17677) GFP-GAP43 S41D | other: BRET50 (RLuc/GFP ratio giving half-maximal BRET) [1]: stronger; reference 15.18 ± 4.53
– | 5-(iodoacetamido)fluorescein-labeled hCB1R-CTD (domain or fragment, human, UniProt P21554 408-472, looked up, also: 5-(iodoacetamido)fluorescein label, position not given here, type-1 cannabinoid receptor (CB1R), human, C-terminal intracellular domain, amino acids 408-472; protein expression and purification are in the Supplementary Methods; also called 5-IAF-labeled CB1R-CTD; source: purified (recombinant; details in Supplementary Methods)) FRSMFPSCEGTAQPLDNSMGDSDCLHKHANNAASVHRAAESCIKSTVKIAKVTMSVSTDTSAEAL | Kd [2]: 38.2 µM
15.2 | GFP-GAP43(WT) (natural protein, UniProt P17677 1-238, looked up, growth-associated protein of 43 kDa (GAP43), wild type; In the co-IP and DMR experiments the text writes GAP43(WT) without GFP; source: HEK293T, transfected, in cells or lysate) MLCCMRRTKQVEKNDDDQKIEQDGIKPEDKAHKAATKIQASFRGHITRKKLKGEKKDDVQAAEAEANKKDEAPVADGVEKKGEGTTTAEAAPATGSKPDEPGKAGETPSEEKKGEGDAATEQAAPQAPASSEEKAGSAETESATKASTDNSPSSKAEDAPAKEEPKQADVPAAVTAAAATTPAAEDAAAKATAQPPTETGESSQAEENIEAVDETKPKESARQDEGKEEEPEADQEHA | –
7.08 | GFP-GAP43(S41D) (natural protein, UniProt P17677 1-238, looked up, growth-associated protein of 43 kDa (GAP43) with the phospho-mimetic point mutation S41D; In the co-IP and DMR experiments the text writes GAP43(S41D) without GFP; also called phospho-mimetic GAP43; source: HEK293T, transfected, in cells or lysate) MLCCMRRTKQVEKNDDDQKIEQDGIKPEDKAHKAATKIQADFRGHITRKKLKGEKKDDVQAAEAEANKKDEAPVADGVEKKGEGTTTAEAAPATGSKPDEPGKAGETPSEEKKGEGDAATEQAAPQAPASSEEKAGSAETESATKASTDNSPSSKAEDAPAKEEPKQADVPAAVTAAAATTPAAEDAAAKATAQPPTETGESSQAEENIEAVDETKPKESARQDEGKEEEPEADQEHA | –
